From IntAct's records for PubMed 11545742

B1: DNA polymerase eta (Saccharomyces cerevisiae), Q04049 (parent)
chain: MSKFTWKELIQLGSPSKAYESSLACIAHIDMNAFFAQVEQMRCGLSKEDPVVCVQWNSIIAVSYAARKYGISRMDTIQEALKKCSNLIPIHTAVFKKGEDFWQYHDGCGSWVQDPAKQISVEDHKVSLEPYRRESRKALKIFKSACDLVERASIDEVFLDLGRICFNMLMFDNEYELTGDLKLKDALSNIREAFIGGNYDINSHLPLIPEKIKSLKFEGDVFNPEGRDLITDWDDVILALGSQVCKGIRDSIKDILGYTTSCGLSSTKNVCKLASNYKKPDAQTIVKNDCLLDFLDCGKFEITSFWTLGGVLGKELIDVLDLPHENSIKHIRETWPDNAGQLKEFLDAKVKQSDYDRSTSNIDPLKTADLAEKLFKLSRGRYGLPLSSRPVVKSMMSNKNLRGKSCNSIVDCISWLEVFCAELTSRIQDLEQEYNKIVIPRTVSISLKTKSYEVYRKSGPVAYKGINFQSHELLKVGIKFVTDLDIKGKNKSYYPLTKLSMTITNFDIIDLQKTVVDMFGNQVHTFKSSAGKEDEEKTTSSKADEKTPKLECCKYQVTFTDQKALQEHADYHLALKLSEGLNGAEESSKNLSFGEKRLLFSRKRPNSQHTATPQKKQVTSSKNILSFFTRKK

Variants of: B1
Settings: with pcna_yeast POL30, P15873
Sequence of pcna_yeast POL30, P15873 (P15873 whole entry): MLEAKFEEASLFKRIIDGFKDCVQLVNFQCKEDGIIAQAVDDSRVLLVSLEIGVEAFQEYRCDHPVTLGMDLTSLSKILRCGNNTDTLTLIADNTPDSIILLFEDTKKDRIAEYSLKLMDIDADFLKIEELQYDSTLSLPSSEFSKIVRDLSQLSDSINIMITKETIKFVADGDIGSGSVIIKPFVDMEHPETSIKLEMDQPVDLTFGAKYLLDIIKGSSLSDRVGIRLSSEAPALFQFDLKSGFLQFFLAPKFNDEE

**Q.** How did the “effect of a mutation on the interaction” value turn out when F627A;F628A was run?
**A.** decreasing interaction
